Experiments:
[1] = Hot-plate pain test, morphine-induced analgesia; assay type: in vivo; conditions: subcutaneous injection, various concentrations, 55° C. hot plate, WT vs PK2^-/- mice
Source text: FIGS. 6A-6C show impaired stress-induced analgesia in PK2^-/- mice. […] (a and b) The hot-plate latency was monitored before or after stress. Animals were stressed by 3-min of cold-water swimming (a) or 5-min of tail suspension (b). Wild-type (closed circles); PK2^-/- (open circles). The black blocks indicate the stressing period. (c) The hot-plate latency was also monitored after subcutaneous injection of various concentrations of morphine. There was no genotypic difference in morphine-induced analgesia; n=12-15 mice/genotype *, P<0.05; unpaired t test. Error bars, SEM.
Pain perception and stress-induced analgesia was measured. All the pain tests were carried out on a hot plate with a 55° C. surface, on which no basal difference was observed between WT and PK2^-/- mice. The cut-off time was set to 1 min to prevent tissue damage. Stress was induced by forced swimming for 3 min in 10° C. water, or suspending the tail for 5 minutes.

PK2 mRNA in the PVN = conditions: compared with induction by 24 hours of food deprivation
Method: In situ hybridization was performed for detection. Animals were killed and brains were quickly dissected and stored at −80° C. until use. In situ hybridization was performed on coronal sections as described previously. The ^35S-hybridized slices were then coated with Kodak NTB2 autoradiographic emulsion and exposed for 1 month at 4° C.

[2] = Sleep/wake recording after ICV infusion; assay type: in vivo; conditions: rats, 5 μg ICV at ZT 14, following 4 hours (ZT 14-18), vs CSF
Method: (§1) (a) Artificial cerebrospinal fluid (CSF) or 5 μg of PK2 was infused ICV to rats at ZT 14. Slow wave sleep (SWS), rapid eye movement sleep (REM) and active wake (AW) during the following 4 hours (ZT 14-18) were averaged and presented as mean±SEM; n=6 rats/group. (b) CSF or 5 μg of PK2 was infused ICV to rats at ZT 2 (day) or ZT 14 (night), the food intake in the following 24 hours were measured periodically and presented as mean±SEM. n=6-10 rats/group. (c) CSF or 4 μg of PK2 was infused ICV into mice. Anxiety-like behavior was monitored with a light-dark box assay 1 hour after infusion. n=12 mice/group. (d) CSF or 4 μg of PK2 was infused ICV into mice. Immobility in a forced swimming test was measured 1 hour after infusion; n=12 mice/group. *, P<0.05; unpaired t test. Error bars, SEM.
Recording and analysis of sleep/wake was performed. The sleep/wake recording in rats was carried out as described in reference. Digital recording was visually scored as slow wave sleep (SWS), rapid eye movement sleep (REM) and active wake (AW). For the mice, electroencephalogram (EEG) and electromyogram (EMG) signals were recorded using a lightweight implant and cabling procedure as described. […] The signals were digitally filtered (EEG, 0.3-30 Hz; EMG, 2-100 Hz) and semi-automatically scored in 4 second epochs as wake, NREM, or REM sleep using SleepSign sleep scoring software (Kissei Comtec America, California). […]

[3] = Food intake after ICV infusion; assay type: in vivo; conditions: rats, 5 μg ICV at ZT 2 (day) or ZT 14 (night), following 24 hours, vs CSF
Method: as §1
Food intake was measured. Mice food intake measurement was performed using a Comprehensive Lab Animal Monitoring System (CLAMS, Columbus Instruments, Columbus, Ohio). Feeding data were collected every 10 min for each mouse over a period of 5 days. The daily food intake was the total food consumed during 24 hours. For rats, the food pellets in the food bin were measured manually every 4-8 hours after drug infusion. The food intake was the total amount of food loaded subtracted by the amount of food left.
Intracerebroventricular infusion was utilized. […]

[4] = Light-dark box assay (anxiety-like behavior) after ICV infusion; assay type: in vivo; conditions: mice, 4 μg ICV, 1 hour after infusion, vs CSF
Method: as §1
The light-dark box was divided into a lit compartment (30×20×25 cm, illumination 400 lux) and a dark compartment (15×20×25 cm) connected by a 4-cm tunnel. The experiment was started by placing the animal in the dark compartment.
Numbers of transitions, total time spent in the lit compartment, and latency until the first exit were recorded on video and quantified during 10 minutes.
(§2) Intracerebroventricular infusion was utilized. Rats with cannula fit to the lateral ventricle were purchased from Charles River laboratory. […]

[5] = Forced swimming test (depression-like behavior) after ICV infusion; assay type: in vivo; conditions: mice, 4 μg ICV, 1 hour after infusion, vs CSF
Method: as §1
The Porsolt forced swim test was utilized. Animals were placed individually in cylinders (height 25 cm, diameter 11 cm) filled with 8-cm-deep water (temperature 22±1° C.) for 6 minutes The total period of immobility during the 6 minutes was recorded. Immobility was defined as no volitional body or limb movement.
as §2

Molecule: CN1CC[C@]23c4c5ccc(O)c4O[C@H]2[C@@H](O)C=C[C@H]3[C@H]1C5 [morphine]
- morphine-induced analgesia (hot-plate latency) [1]: indistinguishable between WT and PK2^-/- mice

Molecule: O=CC[C@@H](O)[C@H](O)[C@H](O)CO [2-DG, 2-Dexoyl-D-glucose]
- induction of PK2 mRNA in the PVN (PK2 mRNA in the PVN): induction was mimicked

B1: PK2: regulatory peptide that activates two closely related G protein-coupled receptors (PKR1, PKR2) (protein, UniProt Q9HC23 28-129, looked up)
Prokineticin-2: AVITGACDKDSQCGGGMCCAVSIWVKSIRICTPMGKLGDSCHPLTRKNNFGNGRQERRKRKRSKRKKEVPFFGRRMHHTCPCLPGLACLRTSFNRFICLAQK
- arousal level [2]: significantly increased arousal level
- food intake [3]: circadian phase-independent suppression of food intake
- general activity (total entries) [4]: without significant effect on general activity
- time spent in the lit compartment [4]: significantly less time spent in the lit compartment
- time spent on immobility [5]: significantly increased the time spent on immobility

Reference: patent US20100286021A1, “Methods of Modulating Prokineticin 2 for Treatment of Stress Response and Anxiety-Related Disorders” (priority 2007, published 2010)
